Measured values as given in the supplement of paper PMC9112550, “Optimization of the antimicrobial peptide Bac7 by deep mutational scanning” (BMC Biology, 2022).

Test system: Escherichia coli TOP10
Test: shrunken log2 fold change of peptide-encoding DNA abundance (4.5 h post-induction vs induction); higher = less antimicrobial activity (less host growth inhibition)
Conditions: time post-induction: 4.5 h; library: site-saturation at positions 5, 18, 19, 20
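Also: peptides expressed intracellularly from a pBAD plasmid library in pooled LB shake-flask culture, induced with 0.3% L-arabinose, DNA abundance read by NGS, three biological replicates, DESeq2 with apeglm shrinkage.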

Sequence	shrunken log2 fold change
RRIRERPPRLPRPRPRPTLAPRP	0.269
RRIRCRPPRLPRPRPRPAYPPRP	-0.149
RRIRRRPPRLPRPRPRPQQQPRP	-0.0864
RRIRLRPPRLPRPRPRPMMYPRP	-0.0922
RRIRERPPRLPRPRPRPRGNPRP	-0.598
RRIRQRPPRLPRPRPRPTSCPRP	-0.0676
RRIRGRPPRLPRPRPRPKVCPRP	0.232
RRIRPRPPRLPRPRPRPHSLPRP	-0.0621
RRIRFRPPRLPRPRPRPYTFPRP	-1.3
RRIRCRPPRLPRPRPRPTNKPRP	-0.0578
RRIRDRPPRLPRPRPRPHWHPRP	-0.192
RRIRGRPPRLPRPRPRPGLDPRP	1.24
RRIRTRPPRLPRPRPRPGRKPRP	0.282
RRIRARPPRLPRPRPRPRFIPRP	-0.259
RRIRQRPPRLPRPRPRPPMIPRP	0.0721
RRIRKRPPRLPRPRPRPDKIPRP	0.0555
RRIRERPPRLPRPRPRPHPVPRP	-0.277
RRIRVRPPRLPRPRPRPACNPRP	-0.0138
RRIRNRPPRLPRPRPRPQEWPRP	-0.00211
RRIRCRPPRLPRPRPRPCEGPRP	0.0324
RRIRSRPPRLPRPRPRPFMNPRP	-0.147
RRIRARPPRLPRPRPRPQAPPRP	0.238
RRIRQRPPRLPRPRPRPHTLPRP	-0.263
RRIRMRPPRLPRPRPRPRHFPRP	0.00681
RRIRVRPPRLPRPRPRPVINPRP	-0.712

Sequence	shrunken log2 fold change
RRIRERPPRLPRPRPRPVTFPRP	-0.019
RRIRGRPPRLPRPRPRPYHSPRP	-0.861
RRIRERPPRLPRPRPRPNFTPRP	-0.111
RRIRGRPPRLPRPRPRPRDQPRP	1.26
RRIRMRPPRLPRPRPRPFMAPRP	-0.236
RRIRGRPPRLPRPRPRPIPCPRP	0.184
RRIRWRPPRLPRPRPRPHRQPRP	-0.165
RRIRDRPPRLPRPRPRPLFAPRP	0.65
RRIRVRPPRLPRPRPRPGTRPRP	-0.0152
RRIRVRPPRLPRPRPRPNHLPRP	-0.694
RRIRRRPPRLPRPRPRPGEWPRP	0.701
RRIRWRPPRLPRPRPRPTLCPRP	0.127
RRIRKRPPRLPRPRPRPIPNPRP	0.159
RRIRGRPPRLPRPRPRPDPFPRP	0.302
RRIRNRPPRLPRPRPRPEVRPRP	0.292
RRIRRRPPRLPRPRPRPEHVPRP	0.232
RRIRWRPPRLPRPRPRPPKSPRP	0.789
RRIRNRPPRLPRPRPRPWGAPRP	0.0894
RRIRVRPPRLPRPRPRPASRPRP	0.275
RRIRYRPPRLPRPRPRPRRCPRP	0.254
RRIRNRPPRLPRPRPRPPYRPRP	-0.11
RRIRLRPPRLPRPRPRPLKNPRP	-0.295
RRIRQRPPRLPRPRPRPNVNPRP	-0.543
RRIRWRPPRLPRPRPRPTECPRP	0.0746
RRIRYRPPRLPRPRPRPDHLPRP	-0.00968

Sequence	shrunken log2 fold change
RRIRHRPPRLPRPRPRPVRLPRP	0.0217
RRIRWRPPRLPRPRPRPIVDPRP	-0.0254
RRIRRRPPRLPRPRPRPIAKPRP	0.252
RRIRLRPPRLPRPRPRPQWDPRP	-0.00172
RRIRWRPPRLPRPRPRPDIGPRP	-0.0157
RRIRERPPRLPRPRPRPHYAPRP	-0.383
RRIRVRPPRLPRPRPRPDQFPRP	-0.0568
RRIRSRPPRLPRPRPRPAYRPRP	-0.154
RRIRFRPPRLPRPRPRPSVGPRP	-0.453
RRIRQRPPRLPRPRPRPQGYPRP	-0.19
RRIRMRPPRLPRPRPRPSWGPRP	0.155
RRIRVRPPRLPRPRPRPIWGPRP	0.0376
RRIRRRPPRLPRPRPRPREEPRP	0.919
RRIRIRPPRLPRPRPRPHAPPRP	0.2
RRIRVRPPRLPRPRPRPRDVPRP	-0.113
RRIRLRPPRLPRPRPRPTKDPRP	-0.183
RRIRWRPPRLPRPRPRPPPYPRP	0.0878
RRIRLRPPRLPRPRPRPHGIPRP	-0.017
RRIRTRPPRLPRPRPRPSRDPRP	-0.139
RRIRHRPPRLPRPRPRPFPQPRP	3.88
RRIRNRPPRLPRPRPRPSKNPRP	-0.267
RRIRLRPPRLPRPRPRPLWNPRP	-0.228
RRIRCRPPRLPRPRPRPRDLPRP	0.108
RRIRQRPPRLPRPRPRPIFPPRP	0.122
RRIRYRPPRLPRPRPRPLRNPRP	-0.277

Sequence	shrunken log2 fold change
RRIRSRPPRLPRPRPRPAEAPRP	0.429
RRIRVRPPRLPRPRPRPHLDPRP	0.0818
RRIRFRPPRLPRPRPRPYHFPRP	-0.194
RRIRGRPPRLPRPRPRPGGFPRP	0.819
RRIRMRPPRLPRPRPRPWANPRP	-0.0525
RRIRYRPPRLPRPRPRPETKPRP	-0.485
RRIRFRPPRLPRPRPRPDNQPRP	-0.834
RRIRTRPPRLPRPRPRPILIPRP	-0.485
RRIRERPPRLPRPRPRPKGDPRP	-0.0914
RRIRTRPPRLPRPRPRPWTYPRP	-0.00992
RRIRMRPPRLPRPRPRPSYMPRP	-0.276
RRIRLRPPRLPRPRPRPWMEPRP	0.00489
RRIRLRPPRLPRPRPRPRWTPRP	0.404
RRIRDRPPRLPRPRPRPWPQPRP	-0.121
RRIRCRPPRLPRPRPRPPHRPRP	0.854
RRIRPRPPRLPRPRPRPTWEPRP	0.659
RRIRARPPRLPRPRPRPDDAPRP	0.138
RRIRERPPRLPRPRPRPIWPPRP	0.0406
RRIRSRPPRLPRPRPRPYDIPRP	-0.0295
RRIRARPPRLPRPRPRPNLIPRP	1.17
RRIRHRPPRLPRPRPRPRAKPRP	1.14
RRIRRRPPRLPRPRPRPIDYPRP	-0.029
RRIRLRPPRLPRPRPRPHFKPRP	-0.367
RRIRERPPRLPRPRPRPIPDPRP	-0.209
RRIRGRPPRLPRPRPRPWDHPRP	0.0661

Sequence	shrunken log2 fold change
RRIRVRPPRLPRPRPRPTKVPRP	-0.341
RRIRYRPPRLPRPRPRPDNPPRP	-0.877
RRIRSRPPRLPRPRPRPKYRPRP	0.127
RRIRRRPPRLPRPRPRPKAIPRP	0.111
RRIRARPPRLPRPRPRPNAPPRP	0.467
RRIRWRPPRLPRPRPRPREMPRP	0.262
RRIRYRPPRLPRPRPRPVCKPRP	-1.41
RRIRYRPPRLPRPRPRPCMVPRP	-0.251
RRIRQRPPRLPRPRPRPVSVPRP	0.028
RRIRGRPPRLPRPRPRPRNQPRP	0.402
RRIRKRPPRLPRPRPRPVLLPRP	0.122
RRIRLRPPRLPRPRPRPEDGPRP	-0.0468
RRIRIRPPRLPRPRPRPFAKPRP	-0.295
RRIRSRPPRLPRPRPRPMLQPRP	-0.0416
RRIRTRPPRLPRPRPRPTTSPRP	0.0942
RRIRERPPRLPRPRPRPMAWPRP	0.151
RRIRCRPPRLPRPRPRPWMYPRP	-0.0169
RRIRDRPPRLPRPRPRPRKVPRP	0.187
RRIRNRPPRLPRPRPRPWDRPRP	-0.0515
RRIRRRPPRLPRPRPRPIMRPRP	0.277
RRIRRRPPRLPRPRPRPDNFPRP	0.028
RRIRPRPPRLPRPRPRPHHKPRP	-0.647
RRIRERPPRLPRPRPRPRGTPRP	0.0483
RRIRARPPRLPRPRPRPADNPRP	0.383
RRIRGRPPRLPRPRPRPRFRPRP	0.3
